Patent US20180016322A1 (INSERM INSTITUT NATIONAL DE LA SANTE ET DE LA RECHERCHE …, published 2018)

Target: synthetic MBP-HIS-EBOV-GP fusion peptide (Zaire Ebolavirus (EBOV), UniProt P0AEX9 27-392 = MBP)
Experiment: ELISA on coated recombinant fusion protein

B1: murine monoclonal antibody 3327 (antibody, V domains shown)
VH: EVQLQESGPSLGKPSQTLSLTCSVTGDSITSGYWNWIRKFPGSKLEYMGYITSSGSTYYNPSLKSRISITRDTSKNQYYLQLNSVTSEDTATYYCAREGARSSGGWYFDVWGAGTTVTVSS
VL: DIVMTQSHKFMSTSVGDRVSITCKASQDVSSAVVWYQQKPGQSPKLLIYWASTRHTGVPDRFTGSGSGTDYTLTISSVQAEDLALYYCQQHYSTPTFGGGTKLEIKR
  binding result: no binding
